Test results as given in patent publication US20190241648A1 (STATEN BIOTECHNOLOGY B V, published 2019).
Ends that are not written are not given here.

Assays:
[1] = biological target: T1, ApoC3 peptide D66I (human, not fully specified; cyclic (thioether)); experiment: cyclic peptide substitution array
T1 peptide: DKFSEFWILDPEV
Description: (§1) S62 and D68 of mature huApoC3 were also highly conserved; substitution of S62 by A or V, and substitution of D68 by E or P, caused decrease of spot intensities by ˜60% or higher. […] Amino acid F64 was completely variable.
(§2) Pre: staining of one of the ApoC3 peptide microarrays was done with the secondary antibody goat anti-human IgG (Fe) DyLight680 (1:5000) and control antibody mouse monoclonal anti-HA (12CA5) DyLight800 (1:2000) to investigate background interactions of the secondary antibody with the antigen-derived peptides that could interfere with the main assays. Subsequent incubation of other ApoC3 peptide microarrays with antibody samples was followed by staining with secondary and control antibodies as well as read-out at scanning intensities of 7/7 (red/green). The additional HA peptides framing the peptide arrays were stained as internal quality control to confirm the assay quality and the peptide microarray integrity.

[2] = biological target: T2, ApoC3 peptide P69W (human, not fully specified; cyclic (thioether)); experiment: cyclic peptide substitution array
T2 peptide: DKFSEFWDLDWEV
Description: as §1, §2

[3] = biological target: T3, ApoC3 peptide … G46C (human, also: cyclic constrained); experiment: peptide microarray
T3 peptide: ARGWVTDCFSSLK
Summary of the method: (§3)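 Peptide microarrays of ApoC3-derived peptides incubated with antibody samples, then stained with goat anti-human IgG (Fc) DyLight680 (1:5000) and anti-HA DyLight800 (1:2000) control. Read-out by fluorescence scanning at intensities 7/7 (red/green); a secondary-only pre-stain checked background, HA frame peptides served as quality control.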

[4] = biological target: T4, ApoC3 peptide … D45G (human, not fully specified (bridges); also: cyclic constrained); experiment: peptide microarray
T4 peptide: ARGWVTGGFSSLK
Summary of the method: as §3

[5] = biological target: T5, ApoC3 peptide … R40V (human, thioether (positions not given here); also: cyclic constrained); experiment: peptide microarray
T5 peptide: AVGWVTDGFSSLK
Summary of the method: as §3

[6] = biological target: T6, ApoC3 peptide … S49E (human, cyclic constrained); experiment: peptide microarray
T6 peptide: ARGWVTDGFSELK
Summary of the method: as §3

[7] = biological target: T7, ApoC3 peptide … S49M (human, cyclic constrained); experiment: peptide microarray
T7 peptide: ARGWVTDGFSMLK
Summary of the method: as §3

[8] = biological target: T8, ApoC3 peptide … G46S (human, thioether (positions not given here); also: cyclic constrained); experiment: peptide microarray
T8 peptide: ARGWVTDSFSSLK
Summary of the method: as §3

[9] = biological target: T9, ApoC3 peptide … S49G (human, cyclic constrained); experiment: peptide microarray
T9 peptide: ARGWVTDGFSGLK
Summary of the method: as §3

[10] = biological target: T10, ApoC3 peptide … W42S (human, not fully specified (bridges); also: cyclic constrained); experiment: peptide microarray
T10 peptide: ARGSVTDGFSSLK
Summary of the method: as §3

[11] = biological target: T11, ApoC3 peptide … G41C (human, also: cyclic constrained); experiment: peptide microarray
T11 peptide: ARCWVTDGFSSLK
Summary of the method: as §3

[12] = biological target: T12, ApoC3 peptide … L50D (human, not fully specified; cyclic constrained); experiment: peptide microarray
T12 peptide: ARGWVTDGFSSDK
Summary of the method: as §3

[13] = biological target: ApoC3 peptide … S48W (human, cyclic constrained); experiment: peptide microarray
Summary of the method: as §3

[14] = biological target: T13, ApoC3 peptide … K51Y (human, not fully specified; cyclic constrained); experiment: peptide microarray
T13 peptide: ARGWVTDGFSSLY
Summary of the method: as §3

[15] = biological target: T14, ApoC3 peptide … L50F (human, not fully specified; cyclic constrained); experiment: peptide microarray
T14 peptide: ARGWVTDGFSSFK
Summary of the method: as §3

[16] = biological target: T15, ApoC3 peptide … D45Y (human, not fully specified (bridges); also: cyclic constrained); experiment: peptide microarray
T15 peptide: ARGWVTYGFSSLK
Summary of the method: as §3

[17] = biological target: T16, ApoC3 peptide … T44D (human, not fully specified (bridges); also: cyclic constrained); experiment: peptide microarray
T16 peptide: ARGWVDDGFSSLK
Summary of the method: as §3

[18] = biological target: T17, ApoC3 peptide … S48Y (human, not fully specified (bridges); also: cyclic constrained); experiment: peptide microarray
T17 peptide: ARGWVTDGFYSLK
Summary of the method: as §3

[19] = biological target: T18, ApoC3 peptide … K51A (human, thioether (positions not given here); also: cyclic constrained); experiment: peptide microarray
T18 peptide: ARGWVTDGFSSLA
Summary of the method: as §3

[20] = biological target: T19, ApoC3 peptide … G46Y (human, thioether (positions not given here); also: cyclic constrained); experiment: peptide microarray
T19 peptide: ARGWVTDYFSSLK
Summary of the method: as §3

[21] = biological target: T20, ApoC3 peptide … D45M (human, cyclic constrained); experiment: peptide microarray
T20 peptide: ARGWVTMGFSSLK
Summary of the method: as §3

[22] = biological target: T21, ApoC3 peptide … T44I (human, not fully specified (bridges); also: cyclic constrained); experiment: peptide microarray
T21 peptide: ARGWVIDGFSSLK
Summary of the method: as §3

[23] = biological target: T22, ApoC3 peptide … T44K (human, not fully specified (bridges); also: cyclic constrained); experiment: peptide microarray
T22 peptide: ARGWVKDGFSSLK
Summary of the method: as §3

[24] = biological target: T23, ApoC3 peptide … W42T (human, not fully specified (bridges); also: cyclic constrained); experiment: peptide microarray
T23 peptide: ARGTVTDGFSSLK
Summary of the method: as §3

[25] = biological target: ApoC3 peptide … S48I (human, cyclic constrained); experiment: peptide microarray
Summary of the method: as §3

[26] = biological target: T24, ApoC3 peptide … D45E (human, not fully specified (bridges); also: cyclic constrained); experiment: peptide microarray
T24 peptide: ARGWVTEGFSSLK
Summary of the method: as §3

[27] = biological target: T25, ApoC3 peptide … W42Y (human, not fully specified (bridges); also: cyclic constrained); experiment: peptide microarray
T25 peptide: ARGYVTDGFSSLK
Summary of the method: as §3

[28] = biological target: T26, ApoC3 peptide … K51D (human, thioether (positions not given here); also: cyclic constrained); experiment: peptide microarray
T26 peptide: ARGWVTDGFSSLD
Summary of the method: as §3

[29] = biological target: T27, ApoC3 peptide … G41N (human, also: cyclic constrained); experiment: peptide microarray
T27 peptide: ARNWVTDGFSSLK
Summary of the method: as §3

B1: Llama antibody 5E5 (antibody, V domains shown)
VH: QLQLVESGGGLVQPGGSLRLSCAASGFTFGTYSMRWVRQVPRKALEWVSSISTDGGGTAYRDSVKGRFTISRDNAKNTLYLQMNNLKPEDTAIYYCVIAGYSDWGQGTQVTVSS
VL: ATMLTQSPGSLSVVPGESASISCKTSQGLVHSDGKTYFYWFLQKPGQSPQQLIYQVSNRASGVPDRFTGSGSGTDFTLKISGVKAEDAGVYYCAQGTYYPHTFGSGTRLEIK
notes: detected with goat anti-human IgG (Fc); also called mAb 5E5
% of binding to wild-type peptide [1]: 0% | % of binding to wild-type peptide [2]: 5.36%

B2: anti-ApoC3 antibody 14C7 (antibody, V domains shown)
VH: QVQVQESGPGLVKPSQTLSLTCTVSGGSITTNSYYWSWIRQPPGKGLEWMGAIDYSGDTYYSPSLKSRTSISRDTSKNQFTLQLTSVTPEDTAVYYCVSRIPTGEYWGQGTQVTVSS
VL: QTVVTQEPSLSVSPGGTVTLTCGLNSGSVTSSNYPDWYQQTPGQAPRLLIYNTNSRHSGVPSRFSGSISGNKAALTITGAQPEDEADYYCALYMGSDSVVFGGGTHLTVL
notes: it was detected with goat anti-human IgG (Fc); also called mAb 14C7; llama antibody 14C7
% of binding to wild-type peptide [3]: 0% | % of binding to wild-type peptide [4]: 2.16% | % of binding to wild-type peptide [5]: 57.5% | % of binding to wild-type peptide [6]: 0% | % of binding to wild-type peptide [7]: 1.86% | % of binding to wild-type peptide [8]: 0% | % of binding to wild-type peptide [9]: 0% | % of binding to wild-type peptide [10]: 204% | % of binding to wild-type peptide [11]: 14.8% | % of binding to wild-type peptide [12]: 0% | % of binding to wild-type peptide [13]: 3.49% | % of binding to wild-type peptide [14]: 0% | % of binding to wild-type peptide [15]: 56.6% | % of binding to wild-type peptide [16]: 0% | % of binding to wild-type peptide [17]: 0% | % of binding to wild-type peptide [18]: 5.83% | % of binding to wild-type peptide [19]: 10.1% | % of binding to wild-type peptide [20]: 0% | % of binding to wild-type peptide [21]: 21% | % of binding to wild-type peptide [22]: 1.86% | % of binding to wild-type peptide [23]: 0% | % of binding to wild-type peptide [24]: 186% | % of binding to wild-type peptide [25]: 23.6% | % of binding to wild-type peptide [26]: 40% | % of binding to wild-type peptide [27]: 149% | % of binding to wild-type peptide [28]: 0% | % of binding to wild-type peptide [29]: 27.5%
